In the supplement of paper PMC9112550, “Optimization of the antimicrobial peptide Bac7 by deep mutational scanning” (BMC Biology, 2022):

Test system: Escherichia coli TOP10
Experiment: shrunken log2 fold change of peptide-encoding DNA abundance (4.5 h post-induction vs induction); higher = less antimicrobial activity (less host growth inhibition)
Conditions: time post-induction: 4.5 h; library: site-saturation at positions 5, 18, 19, 20
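Further: peptides expressed intracellularly from a pBAD plasmid library in pooled LB shake-flask culture, induced with 0.3% L-arabinose, DNA abundance read by NGS, three biological replicates, DESeq2 with apeglm shrinkage.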

Row | Sequence | shrunken log2 fold change
1 | RRIRVRPPRLPRPRPRPSSMPRP | -0.157
2 | RRIRKRPPRLPRPRPRPSKMPRP | 0.025
3 | RRIRDRPPRLPRPRPRPPKRPRP | -0.0222
4 | RRIRCRPPRLPRPRPRPPRIPRP | 0.48
5 | RRIRSRPPRLPRPRPRPLHGPRP | 0.0705
6 | RRIRTRPPRLPRPRPRPGFNPRP | -0.234
7 | RRIRRRPPRLPRPRPRPTRRPRP | 0.853
8 | RRIRSRPPRLPRPRPRPYQTPRP | -0.0406
9 | RRIRDRPPRLPRPRPRPSDGPRP | 0.166
10 | RRIRTRPPRLPRPRPRPNSTPRP | -0.363
11 | RRIRLRPPRLPRPRPRPVVAPRP | 0.0705
12 | RRIRTRPPRLPRPRPRPPIFPRP | -0.245
13 | RRIRWRPPRLPRPRPRPKQKPRP | 0.0665
14 | RRIRSRPPRLPRPRPRPMRRPRP | 0.732
15 | RRIRKRPPRLPRPRPRPPSCPRP | 1.71
16 | RRIRVRPPRLPRPRPRPYFMPRP | -0.797
17 | RRIRQRPPRLPRPRPRPRCHPRP | 0.118
18 | RRIRYRPPRLPRPRPRPLMDPRP | -0.143
19 | RRIRYRPPRLPRPRPRPIPFPRP | -1.53
20 | RRIRQRPPRLPRPRPRPGGHPRP | 0.201
21 | RRIRNRPPRLPRPRPRPQRGPRP | 0.237
22 | RRIRVRPPRLPRPRPRPRIGPRP | 0.131
23 | RRIRPRPPRLPRPRPRPMAIPRP | -0.0296
24 | RRIRIRPPRLPRPRPRPIGKPRP | -0.13
25 | RRIRSRPPRLPRPRPRPIDSPRP | -0.0241

Row | Sequence | shrunken log2 fold change
26 | RRIRDRPPRLPRPRPRPSYWPRP | -0.0689
27 | RRIRGRPPRLPRPRPRPGDYPRP | 0.199
28 | RRIRGRPPRLPRPRPRPRRYPRP | 0.0823
29 | RRIRGRPPRLPRPRPRPFRLPRP | -0.194
30 | RRIRGRPPRLPRPRPRPKPIPRP | 0.177
31 | RRIRRRPPRLPRPRPRPHDIPRP | -0.127
32 | RRIRNRPPRLPRPRPRPSKRPRP | -0.0331
33 | RRIRERPPRLPRPRPRPTCRPRP | -0.146
34 | RRIRWRPPRLPRPRPRPVMHPRP | -0.119
35 | RRIRGRPPRLPRPRPRPLAAPRP | 1.91
36 | RRIRKRPPRLPRPRPRPISMPRP | -0.00992
37 | RRIRNRPPRLPRPRPRPITQPRP | -0.187
38 | RRIRHRPPRLPRPRPRPIMEPRP | -0.545
39 | RRIRGRPPRLPRPRPRPIVHPRP | 0.342
40 | RRIRARPPRLPRPRPRPNETPRP | 0.0696
41 | RRIRPRPPRLPRPRPRPSGVPRP | -0.0831
42 | RRIRNRPPRLPRPRPRPQCNPRP | -0.468
43 | RRIRFRPPRLPRPRPRPPEAPRP | 0.232
44 | RRIRWRPPRLPRPRPRPKQRPRP | 0.473
45 | RRIRPRPPRLPRPRPRPDQAPRP | -0.0505
46 | RRIRYRPPRLPRPRPRPGVCPRP | -0.0493
47 | RRIRERPPRLPRPRPRPNSWPRP | -0.0404
48 | RRIRHRPPRLPRPRPRPHLAPRP | -0.0341
49 | RRIRLRPPRLPRPRPRPCKEPRP | -0.0177
50 | RRIRDRPPRLPRPRPRPPVYPRP | -0.175

Row | Sequence | shrunken log2 fold change
51 | RRIRNRPPRLPRPRPRPEGSPRP | -0.0385
52 | RRIRSRPPRLPRPRPRPWYTPRP | 0.0361
53 | RRIRDRPPRLPRPRPRPVKVPRP | -0.0343
54 | RRIRYRPPRLPRPRPRPSFNPRP | -0.756
55 | RRIRQRPPRLPRPRPRPEYQPRP | 0.00438
56 | RRIRHRPPRLPRPRPRPETHPRP | 0.0411
57 | RRIRMRPPRLPRPRPRPNPEPRP | 0.406
58 | RRIRKRPPRLPRPRPRPMFKPRP | -0.0779
59 | RRIRYRPPRLPRPRPRPDAEPRP | -0.0535
60 | RRIRLRPPRLPRPRPRPPCAPRP | 0.457
61 | RRIRCRPPRLPRPRPRPTQQPRP | -0.0719
62 | RRIRFRPPRLPRPRPRPPCNPRP | -0.284
63 | RRIRYRPPRLPRPRPRPMLDPRP | -0.467
64 | RRIRCRPPRLPRPRPRPSCFPRP | -0.205
65 | RRIRPRPPRLPRPRPRPKEVPRP | -0.0501
66 | RRIRCRPPRLPRPRPRPHFRPRP | -0.308
67 | RRIRCRPPRLPRPRPRPVGKPRP | 0.0374
68 | RRIRWRPPRLPRPRPRPWGKPRP | 0.0784
69 | RRIRARPPRLPRPRPRPMHRPRP | -0.137
70 | RRIRDRPPRLPRPRPRPIQNPRP | 0.0608
71 | RRIRGRPPRLPRPRPRPEKAPRP | 0.144
72 | RRIRLRPPRLPRPRPRPSPPPRP | 0.198
73 | RRIRGRPPRLPRPRPRPAWTPRP | 0.619
74 | RRIRHRPPRLPRPRPRPHGAPRP | -0.183
75 | RRIRERPPRLPRPRPRPRMTPRP | 0.0697

Row | Sequence | shrunken log2 fold change
76 | RRIRERPPRLPRPRPRPCQWPRP | -0.017
77 | RRIRMRPPRLPRPRPRPNVDPRP | 0.0854
78 | RRIRKRPPRLPRPRPRPLTEPRP | 0.397
79 | RRIRPRPPRLPRPRPRPLFGPRP | 0.142
80 | RRIRRRPPRLPRPRPRPVGCPRP | 0.472
81 | RRIRMRPPRLPRPRPRPAWVPRP | 0.375
82 | RRIRERPPRLPRPRPRPPLFPRP | 0.124
83 | RRIRQRPPRLPRPRPRPKCMPRP | -0.551
84 | RRIRARPPRLPRPRPRPYNDPRP | -1.28
85 | RRIRARPPRLPRPRPRPEIWPRP | 1.55
86 | RRIRSRPPRLPRPRPRPDYRPRP | -0.0371
87 | RRIRDRPPRLPRPRPRPNVHPRP | -0.303
88 | RRIRIRPPRLPRPRPRPTDSPRP | -0.237
89 | RRIRTRPPRLPRPRPRPIMEPRP | -0.409
90 | RRIRWRPPRLPRPRPRPHVTPRP | -0.264
91 | RRIRLRPPRLPRPRPRPEFKPRP | -0.4
92 | RRIRRRPPRLPRPRPRPWCSPRP | -0.0123
93 | RRIRMRPPRLPRPRPRPFALPRP | 0.0192
94 | RRIRRRPPRLPRPRPRPYFIPRP | -0.432
95 | RRIRPRPPRLPRPRPRPCIQPRP | -0.209
96 | RRIRERPPRLPRPRPRPGPRPRP | 0.537
97 | RRIRERPPRLPRPRPRPTCVPRP | -0.0193
98 | RRIRGRPPRLPRPRPRPSQSPRP | 0.0755
99 | RRIRARPPRLPRPRPRPDTPPRP | 0.331
100 | RRIRDRPPRLPRPRPRPEKPPRP | -0.173

Row | Sequence | shrunken log2 fold change
101 | RRIRERPPRLPRPRPRPDIMPRP | -0.196
102 | RRIRDRPPRLPRPRPRPMWQPRP | 0.00699
103 | RRIRTRPPRLPRPRPRPNKGPRP | -0.28
104 | RRIRHRPPRLPRPRPRPVPYPRP | -0.246
105 | RRIRMRPPRLPRPRPRPCYSPRP | -0.711
106 | RRIRIRPPRLPRPRPRPLWNPRP | -0.598
107 | RRIRERPPRLPRPRPRPDGCPRP | 0.0163
108 | RRIRTRPPRLPRPRPRPAIDPRP | -0.206
109 | RRIRTRPPRLPRPRPRPCKCPRP | -1.16
110 | RRIRHRPPRLPRPRPRPWDGPRP | -0.0969
111 | RRIRSRPPRLPRPRPRPEGFPRP | 0.272
112 | RRIRFRPPRLPRPRPRPYNIPRP | -0.181
113 | RRIRWRPPRLPRPRPRPLQLPRP | 0.0501
114 | RRIRPRPPRLPRPRPRPLQNPRP | -0.179
115 | RRIRIRPPRLPRPRPRPDGNPRP | -0.0425
116 | RRIRGRPPRLPRPRPRPDIRPRP | 0.454
117 | RRIRERPPRLPRPRPRPDYMPRP | 0.0229
118 | RRIRGRPPRLPRPRPRPCSEPRP | 0.0744
119 | RRIRMRPPRLPRPRPRPQNIPRP | -0.726
120 | RRIRPRPPRLPRPRPRPDEAPRP | -0.152
121 | RRIRCRPPRLPRPRPRPCGPPRP | -0.104
122 | RRIRFRPPRLPRPRPRPTNKPRP | -0.301
123 | RRIRLRPPRLPRPRPRPDKHPRP | -0.971
124 | RRIRWRPPRLPRPRPRPRKIPRP | 0.491
125 | RRIRIRPPRLPRPRPRPQNMPRP | -0.235

Row | Sequence | shrunken log2 fold change
126 | RRIRIRPPRLPRPRPRPLDLPRP | -0.415
127 | RRIRERPPRLPRPRPRPYWHPRP | -0.168
128 | RRIRKRPPRLPRPRPRPLSMPRP | 0.0129
129 | RRIRIRPPRLPRPRPRPGMIPRP | -0.309
130 | RRIRYRPPRLPRPRPRPTWSPRP | -0.58
131 | RRIRFRPPRLPRPRPRPKEIPRP | -0.0277
132 | RRIRQRPPRLPRPRPRPNQIPRP | -0.371
133 | RRIRIRPPRLPRPRPRPCEEPRP | 0.0173
134 | RRIRNRPPRLPRPRPRPFDAPRP | -0.106
135 | RRIRERPPRLPRPRPRPKSFPRP | 0.0203
136 | RRIRERPPRLPRPRPRPCYGPRP | -0.274
137 | RRIRDRPPRLPRPRPRPDETPRP | 0.0461
138 | RRIRNRPPRLPRPRPRPKKCPRP | -0.209
139 | RRIRYRPPRLPRPRPRPNSKPRP | -0.875
140 | RRIRARPPRLPRPRPRPPMYPRP | -0.147
141 | RRIRKRPPRLPRPRPRPVHPPRP | 0.189
142 | RRIRQRPPRLPRPRPRPHRWPRP | 0.057
143 | RRIRGRPPRLPRPRPRPECHPRP | 1.62
144 | RRIRTRPPRLPRPRPRPHTGPRP | -0.34
145 | RRIRIRPPRLPRPRPRPYTWPRP | -0.891
146 | RRIRCRPPRLPRPRPRPDDSPRP | 0.14
147 | RRIRNRPPRLPRPRPRPKYPPRP | -0.137
148 | RRIRRRPPRLPRPRPRPVYNPRP | -0.154
149 | RRIRPRPPRLPRPRPRPVNKPRP | -0.521
150 | RRIRIRPPRLPRPRPRPQDCPRP | 0.00138
